Reference: article PMC10482006

Molecular target: Kcnj13 (Kir7.1) from D. rerio fused to mCherry (D. rerio)
Assay: mass photometry; OneMP mass photometer (Refeyn), buffer E, sample diluted 1:10 immediately before analysis, mass calibrated with NativeMark; protein solubilised in DDM with CHS

stoichiometry N: 4
Substance: Kcnj13 (Kir7.1) from D. rerio fused to mCherry (natural protein)
